These results are taken from patent US20190315842A1 (DUKE UNIVERSITY, published 2019).

Where “and” joins values, the source holds several entries; their conditions need not be identical. Equal entries are not always repeated. Where no end group is shown, it is not given here. The star is where a group is joined. Biotin = O=C1N[C@H]2[C@H](CS[C@H]2CCCCC(=O)*)N1

Assay [1] has as its target T1, systemic lupus erythematosus autoantigen SSB (UniProt P05455 1-408, limits assumed).
T1 sequence (looked up): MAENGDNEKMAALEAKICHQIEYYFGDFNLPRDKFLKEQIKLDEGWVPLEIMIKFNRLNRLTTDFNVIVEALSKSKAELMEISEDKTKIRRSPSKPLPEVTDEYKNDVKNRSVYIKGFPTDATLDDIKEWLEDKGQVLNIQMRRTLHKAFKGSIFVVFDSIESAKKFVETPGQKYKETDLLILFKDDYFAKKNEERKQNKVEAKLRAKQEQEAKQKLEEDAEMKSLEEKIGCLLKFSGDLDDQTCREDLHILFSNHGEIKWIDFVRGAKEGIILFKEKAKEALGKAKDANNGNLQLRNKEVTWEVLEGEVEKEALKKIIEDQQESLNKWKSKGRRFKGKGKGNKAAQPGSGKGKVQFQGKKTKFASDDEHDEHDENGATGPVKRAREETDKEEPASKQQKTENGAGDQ
Put plainly: AtheNA Multi-Lyte ANA, Ab at 25 ug/ml.

The target in assay [2] is T1, systemic lupus erythematosus …. As to the kind of experiment: AtheNA Multi-Lyte ANA, Ab at 50 ug/ml.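 Also: monoclonal antibodies probed against a nuclear autoantigen panel (SSA, SSB, Sm, RNP, Scl-70, Jo-1, dsDNA, CentB, histones), with anti-HIV 4E10 and palivizumab as control antibodies.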
The target in assay [3] is T2, 15-mer peptide GPPPPIDNGDITSFP (SEQ ID NO: 114) (human).
T2 construct: Immobilized for SPR; also called parent peptide
T2 peptide: GPPPPIDNGDITSFP
As to the kind of experiment: SPR (BIAcore), mAb at 25, 50 or 100 nM over immobilized 15-mer peptide. Background: Surface plasmon resonance follows binding to a sensor surface in real time, without labels.

In assay [4] the target is T3, GPPPPIDNGDITSFP(GGGK-biotin).
T3 construct: also called biotinylated 15-mer peptide; biotinylated 19-mer
T3 peptide: GPPPPIDNGDITSFPGGGK(Biotin)
Put plainly: ELISA: biotinylated peptide captured on immobilized Neutravidin, antibody at 0.5 µg/ml, anti-human IgG-HRP/ABTS, OD 405 nm.

In assay [5] the target is T4, centromere B (CentB) (UniProt P07199 2-599).
T4 sequence (looked up): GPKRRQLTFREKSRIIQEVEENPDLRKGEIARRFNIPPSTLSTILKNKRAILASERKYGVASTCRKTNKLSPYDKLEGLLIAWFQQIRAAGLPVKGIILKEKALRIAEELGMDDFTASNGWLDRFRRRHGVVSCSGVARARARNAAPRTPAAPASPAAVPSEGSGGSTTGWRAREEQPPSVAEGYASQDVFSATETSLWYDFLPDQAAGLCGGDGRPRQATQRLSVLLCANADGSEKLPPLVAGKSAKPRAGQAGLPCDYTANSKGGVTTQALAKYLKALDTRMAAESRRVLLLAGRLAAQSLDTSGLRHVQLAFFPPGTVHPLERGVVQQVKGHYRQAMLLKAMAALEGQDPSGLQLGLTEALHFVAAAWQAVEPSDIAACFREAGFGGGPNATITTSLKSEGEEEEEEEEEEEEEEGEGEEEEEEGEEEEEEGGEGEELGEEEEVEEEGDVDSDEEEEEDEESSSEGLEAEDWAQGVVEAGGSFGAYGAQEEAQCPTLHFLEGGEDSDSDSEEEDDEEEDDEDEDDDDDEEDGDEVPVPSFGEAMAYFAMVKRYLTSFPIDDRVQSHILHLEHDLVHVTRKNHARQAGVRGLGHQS
Put plainly: AtheNA Multi-Lyte ANA, Ab at 25 ug/ml.

The target of assay [6] is T4, centromere B (CentB). As to the kind of experiment: AtheNA Multi-Lyte ANA, Ab at 50 ug/ml.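 Also: monoclonal antibodies probed against a nuclear autoantigen panel (SSA, SSB, Sm, RNP, Scl-70, Jo-1, dsDNA, CentB, histones), with anti-HIV 4E10 and palivizumab as control antibodies.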
For assay [7], the target named is T5, reduced form of Complement Factor H (CFH), treated with TCEP (human, UniProt P08603 19-1231, disulfides reduced with 10 mM TCEP).
T5 construct: also called reduced CFH; reduced form of CFH
Put plainly: immunoblot, SDS-PAGE under reducing conditions, antibody at 0.5 µg/ml, anti-human IgG-HRP, chemiluminescence; lane numbers as in Table 10.

Assay [8] addresses T6, Complement Factor H (CFH) protein, full-length (human, UniProt P08603 19-1231).
T6 construct: also called full-length CFH; native CFH
Put plainly: immunoblot, SDS-PAGE under non-reducing conditions, antibody at 0.5 µg/ml, anti-human IgG-HRP, chemiluminescence; lane numbers as in Table 10. (In western blotting, separated proteins are transferred to a membrane and probed.)

Assay [9] concerns the target T5, reduced form of Complement Factor H …. As to the kind of experiment: immunoblot, SDS-PAGE under reducing conditions, anti-human IgG-HRP, chemiluminescence; lane numbers as in Table 10.
In assay [10] the target is T7, reduced SCR19-20 (human CFH short consensus repeat domains 19 and 20, reduced) (human, UniProt P08603 1107-1231, disulfides reduced with TCEP or reducing SDS-PAGE).
T7 construct: domain: SCR19-20; Same construct as m3, reduced
T7 sequence (looked up): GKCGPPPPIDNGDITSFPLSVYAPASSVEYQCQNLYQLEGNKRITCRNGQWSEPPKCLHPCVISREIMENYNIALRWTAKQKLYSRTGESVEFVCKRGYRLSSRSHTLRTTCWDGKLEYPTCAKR
Described as above.

In assay [11] the target is T6, Complement Factor H (CFH) protein, …. Put plainly: immunoblot, SDS-PAGE under non-reducing conditions, anti-human IgG-HRP, chemiluminescence; lane numbers as in Table 10.

B1: Ab7968 (antibody, IgG1, V domains shown)
VH: LVESGGGVVQPGRSLRLSCAASGFTFSRYGMHWVRQAPGKGLEWVAVMSYDGSTKYYADSVKGRFAISRDNPKNTLFLQMNSLRPDDTAVYYCAKGGAAAAVMDVWGKGTTVTVSS
VL: MTQSPDSLTVSLGERATISCKSSQRLLYSSNNKNYLAWYQQKPGQPPKLLMYWASTRESGVPDRFSGSGSGTDFSLTISSLQAEDVAVYYCQQYYNPPWTFGQGTKVEVK
notes: Recombinant human antibody with IgG1 heavy chain backbone and kappa light chain constant; they begin at LVESGGG and MTQSP; also called mAb 7968; mAb7968
As for B1, in assay [1], the AtheNA signal was found to be 8. In assay [2], this molecule came in with an AtheNA signal of 9. In addition, in [3], the Kd (as a rule, the free concentration of one partner at which half of the binding sites on the other are occupied at equilibrium, for simple one-to-one binding) is ~2.5 pM and 2.46 pM; the koff (in general, the rate constant with which the complex falls apart) was found to be 5.56e-07 s⁻¹; the kon (as a rule, a measure of how fast the partners come together) turned out to be 226000 M⁻¹ s⁻¹. Besides, the binding result in assay [4] is on record as “binds”.

B2: Ab7957/293i (antibody, IgG1, V domains shown)
VH: LVESGGGVVPPGKSLRLSCAASGFTFSLYGIHWVRQAPGKGLEWVAVISYDGNTKYYTDSVKGRFTISRDNAKNTIYLQMNSLRLDDTAVYYCAKGAANSATFDFWGRGTMVTVSS
VL: MTQSPDSLTLSLGERATINCRSSRTVLYRSNNKNYLAWYQHKPGQPPKLLMSWASTRETGVPDRFSGSGSGTHFTLTITSLQPEDVAVYYCQQYYSPPWTFGQGTKVEIR
notes: Recombinant human antibody with IgG1 heavy chain backbone and kappa light chain constant; they begin at LVESGGG and MTQSP; also called Ab7957i; mAb 7957
As for B2, the AtheNA signal in [5] came to 2; in assay [6], 4. The binding result in assay [4], in assay [7] and in assay [8] was “binds” in each case.

B3: Ab7962/293i (antibody, V domains shown)
VH: LVESGGGLVQPGGSLRLSCAASGFTFSSYEMNWVRQAPGKGLEWVSYISSSGSTIYYADSVKGRFTISRDNAKNSLYLQMNSLRAEDTAVYYCARVEQLAPSPYMDVWGKGTTVTVSS
VL: MTQSLDSLTVSLGERATINCKSSQSLLYTSNNKNYLAWYQQKSGQPPKLLIYWASIRDSGVPDRFSGSGSATDFTLTINNLQAEDVAVYFCQQYYKTPLTFGGGTKVEVR
notes: Recombinant human antibody with IgG1 heavy chain backbone and kappa light chain constant (IgM in the donor B cell); they begin at LVESGGG and MTQSL; also called clone 27; pH007962/pK005996
On to B3, for which the figures for the AtheNA signal in [2] and in assay [6] were 8 and 3, respectively. The binding result in assay [9], in [10] and in assay [11] was “no binding (tested: 0.5 µg/ml)” throughout.
